Patent US20150056210A1 (published 2015)

Molecular target: Spacer-GST
Assay: SPR (Biacore X-100)

B1: CRB0017_IgG4 (antibody, V domains shown)
VH: QVQLQQSGAELAKPGASVKMSCKASGYTFTSYWMHWVKQRPGQGLEWIGYINPSTGYTEYNQKFKDKATLTADKSSSTAYMQLGSLTSEDSAVYYCARGGYDDLGYWGQGTTLTVSS
VL: DIVITQDELSNPVTSGESVSISCRSSKSLLYKDGKTYLYWFLQRPGQSPQLPIYLMSTRASGVSDRFSGSGSGTDFTLEISRVKAEDVGVYYCQQLVEYPYTFGGGTKLEIK
- Kd: 2.15 nM
